Data reported in patent publication US20190169246A1 (UNIVERSITY OF SOUTH FLORIDA, published 2019).

Target: APC
Sequence (Q14114 33-826): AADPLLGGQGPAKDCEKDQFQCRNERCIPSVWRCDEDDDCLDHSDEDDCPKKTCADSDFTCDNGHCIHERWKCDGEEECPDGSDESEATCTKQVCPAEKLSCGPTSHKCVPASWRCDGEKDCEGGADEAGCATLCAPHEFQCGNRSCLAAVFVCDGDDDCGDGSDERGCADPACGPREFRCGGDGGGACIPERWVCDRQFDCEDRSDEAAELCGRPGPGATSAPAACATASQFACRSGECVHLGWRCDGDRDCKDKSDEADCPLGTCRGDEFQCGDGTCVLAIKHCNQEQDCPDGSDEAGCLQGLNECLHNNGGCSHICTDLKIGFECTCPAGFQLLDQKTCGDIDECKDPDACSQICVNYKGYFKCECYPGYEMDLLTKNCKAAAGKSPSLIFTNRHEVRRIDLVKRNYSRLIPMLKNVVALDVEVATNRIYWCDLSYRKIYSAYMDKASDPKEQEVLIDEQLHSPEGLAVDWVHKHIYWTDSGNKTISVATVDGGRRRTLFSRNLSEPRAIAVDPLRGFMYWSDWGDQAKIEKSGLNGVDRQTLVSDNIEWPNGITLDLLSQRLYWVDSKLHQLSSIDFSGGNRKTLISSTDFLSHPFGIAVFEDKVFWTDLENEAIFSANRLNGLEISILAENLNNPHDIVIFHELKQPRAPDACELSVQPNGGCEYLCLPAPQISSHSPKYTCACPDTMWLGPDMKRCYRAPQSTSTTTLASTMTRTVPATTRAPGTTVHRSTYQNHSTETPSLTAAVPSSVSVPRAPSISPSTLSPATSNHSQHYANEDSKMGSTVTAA

Kd: 30 nM
B1: ApoER2 (as bound by APC) (receptor)
chain: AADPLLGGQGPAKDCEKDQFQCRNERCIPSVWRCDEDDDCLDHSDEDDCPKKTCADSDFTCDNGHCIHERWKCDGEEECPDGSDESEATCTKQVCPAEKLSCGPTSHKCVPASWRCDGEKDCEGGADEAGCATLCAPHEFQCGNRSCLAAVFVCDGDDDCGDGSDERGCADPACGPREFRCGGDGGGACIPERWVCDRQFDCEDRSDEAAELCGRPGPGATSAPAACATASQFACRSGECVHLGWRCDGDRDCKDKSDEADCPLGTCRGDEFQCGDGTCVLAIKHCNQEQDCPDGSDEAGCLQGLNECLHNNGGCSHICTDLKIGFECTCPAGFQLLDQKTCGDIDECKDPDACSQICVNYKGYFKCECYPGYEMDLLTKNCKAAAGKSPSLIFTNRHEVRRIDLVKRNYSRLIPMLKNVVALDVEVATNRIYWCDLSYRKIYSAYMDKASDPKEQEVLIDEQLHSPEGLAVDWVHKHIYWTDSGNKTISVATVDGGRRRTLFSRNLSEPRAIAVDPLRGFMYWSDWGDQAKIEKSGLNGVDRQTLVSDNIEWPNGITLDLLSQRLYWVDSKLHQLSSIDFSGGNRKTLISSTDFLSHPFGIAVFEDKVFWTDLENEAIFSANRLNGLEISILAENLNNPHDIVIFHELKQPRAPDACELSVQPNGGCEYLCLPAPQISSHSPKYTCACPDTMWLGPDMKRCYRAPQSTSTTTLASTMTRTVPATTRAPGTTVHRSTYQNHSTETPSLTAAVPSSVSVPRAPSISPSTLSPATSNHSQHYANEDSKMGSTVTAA
